# Test results published in the DeepSol protein solubility set.
# Experiment: soluble on expression in E. coli; label from the status in PepcDB or PDB records
row,Sequence,soluble on expression in E. coli
1,MSLPVKNLRHLPKAHLHLHLEGAMRPATLTEFCERYKIKRPSDTRGKQFSNFAAFNEVYRAASDSIRTRQDLARVIQEVAEDAAKDGATWIEPAFDADRYTVLRADKSLRLFETPYEGWLFALKAARNASEKTGVGISFISAIDRTRPIDQANERAKLTTNLIASQKHQITAKNINGGEPYAGIIGLGLHGNEEGYPPEIFAEAFQIVTKKTEALSIPHAGEIAPTPGKGPESVEKAIDILSASRIQHGVLAIQDEVLIEKIKEKNICLDVCPSSNIQLSVFPNIQAHPLPLLIESGVSCSLGSDDPLLFGPSLLDEFELCREQMRLSDNTLAQLARNSFKYSGAPKKIVEQGLRDIDTWLNEGHHHHHH,soluble
2,MSLYQEFFTFIPVDIEELDKAFGGGLIRGATISIMYDAFSLGWALGFEMVKNLIRRNSFGVIHNYNLPTIKLISRASFVGLNIQELAKRKEIMILDVFGSKYDVPPYADYVLQVPNPTPETLNPKIESVYENKIFQVAGDRRIVKLVYTLDGVATMFGEEVAIKLLNGELAWLAKMYGKRNVMTILLLNVDMVSKKFIAWTSGVSDIVITFQSLTEEREGELVERMTVIKSLNPEFEPTSYEFRVTATGTGSHALDFRKIENEGHHHHHH,not soluble
3,MGSDKIHHHHHHMIRLGLTSFSEHDYLTGKKRSTLYEYASHLPLVEMDTAYYGIPPKERVAEWVKAVPENFRFVMKVYSGISCQGEWQTYYASEEEMITAFLESMAPLIESKKLFAFLVQFSGTFGCTKENVAYLQKIRHWFKDLPIAIELRNNSWYQPNFVKQMLQFMKENQFSLVIVDEPQIPTNPVPFYPYVTNPNLVLFRFHGRNAAGWLANDAEWRKKRTLYHYNTQEIADLSEAVLKMSQEAKEVGVIFNNNSGGDAAENALQMQKVLNLSYDDLNPKQLDLF,soluble
4,MKKLATLTALAGALTMAVATAAQAESKSSSTDNTATPCVGDKCVKTKAAEGKCGEGKCGADKAKSAEGKCGEGKCGADKAKSAEGKCGEGKCGSK,not soluble
5,MYIQVLGSAAGGGFPQWNCNCVNCKGYRDGTLKATARTQSSIALSDDGVHWILCNASPDIRAQLQAFAPMQPARALRDTGINAIVLLDSQIDHTTGLLSLREGCPHQVWCTDMVHQDLTTGFPLFNMLSHWNGGLQWNRIELEGSFVIDACPNLKFTPFPLRSAAPPYSPHRFDPHPGDNLGLMVEDTRTGGKLFYAPGLGQVDEKLLAMMHGADCLLVDGTLWEDDEMQRRGVGTRTGREMGHLAQNGPGGMLEVLDGFPRQRKVLIHINNTNPILDENSPERAEVLRRGVEVAFDGMSIELLEHHHHHH,soluble
6,MGSDKIHHHHHHMMNNIGLILFDIDGVIRDVTNSYRLAIQETVNFFSGWRPSIEDIDSIKSEGCWNNDWDLSLEMINRHVQKNNLSFSAPSRKILIECFENFYFGGDPNHDSSEWSGFIKDETLLVKKTFFEELTQRRIGWGFVSGAELPSAKFVLEQRLGLASAPLIAMGEAPEKPDPTGFISLSSKLSKKPLGFSNPPIAYIGDTVADVKTVINARIKIPDQKFISLAIAPPHLHVDSSREKRLRYEAELKKAGADLIIKSMDNLKNETLNLFINQ,not soluble
7,MGSDKIHHHHHHMILSHFSTKVVTFFGSRFKAVRGVDLKRYRKELKLKQQELASKLGIERSLISKIESGKRVISKELEQKIINVLNLDGGHASVEAKIDFLRIRFKTLDVRTVIEKLLHMDMNWFTHESRGFYHYTETFSYSSIRIFRNPENVNMGIMLDLSGEGCRQLEEIFEEDNNRSWTEFFRSLYDDDIFGQGILVDTKITRIDIALDELIVKGQENFDLYVLKEKMEQGLVDTTFKNFDFSGGFVYENKKMVNKGLSLYFGSRQSPLYFNFYQKDYELARKESMSVEEAREKHEIKNRYEIRLSDEKAFLFVEYFLSSGESLDWLVKEIINQSLTVYDIEDDMKVYCKSWHDVVDKLEGLKLSVQGEKPSIEKTLRWLSNYLAPSLKMIKEIDNLLGTNELMERIDLAELKEKHEEIIEMVSVDAKDLLFTNRDNKSVRSYMEREFELEEMYPF,not soluble
8,MGSDKIHHHHHHMLLYIHGFNSSPFSDKAVITARYMAEYHPSLTFHQPQLPNTPKAAMALLQSYVEAAQQANEPLNYIGSSLGGYFASYLAERYGGRAVLVNPAVKPFELFDEFMGPQFNPYTQEHYQVLPEHKREVAEFNTPVIRNPERFLVLLQTGDEVLDYREALHKYHHCQLRIESGGDHSFVGYERYLQTVSQFLHLP,not soluble
9,MSLSLLLQQHLSQPWRFLDHTSFGPTFQALQSFAYDDTLCTSIGKSQSPPTLRAWVHHNTVVLGIQDSRLPQIKAGIEALKGFQHDVIVRNSGGLAVVLDSGILNLSLVLKEEKGFSIDDGYELMYELICSMFQDHREQIEAREIVGSYCPGSYDLSIDGKKFAGISQRRIRGGVAVQIYLCVSGSGAERAKMIRTFYDKAVAGQPTKFVYPRIKPETMASLSELLGQPHNVSDVLLKALMTLQQHGASLLTESLSADEWLLYEQHFARISERNEKLLAEEGHHHHHH,soluble
10,MAHHHHHHMLLLLEREHPAVHAAVERILRGDSKIPVSVVRDFDGCEYHIRVEWDKEEKEMSQTSGVDSKDTGSGEVGTVNVGGTASVTVSLRSFTPFAELNTHGNFYEVLTTLFPSELQKFVVCDTHKGDGEDFTVAVHIPSNVPAKMLKEAMHSTAQLRAWSFVPAFARQFELFLTNPEVVQPLQLHYHDGEEMVVYNNRGSFIVAIALRVPSKDDAVLTRHFLQAMVEVRKHERSFCGSSAFIFEQGGPPDSVVAVTGPRGRVRDPNTFWCSFQLYKQQMEPPPRLVETVMHLVNFRTTLAYHIRAGRTYMHGIMRKRVESSLQWLNKAKARVAEETKITIT,not soluble
11,MSLNYLMKEKYIGLHKFELDTPCLVIDYEKLKHNLEIMQQHGFTWGIGIRPHCKTHKCTQIARLQLEYGAIGISAAKLSEAAALVSKRITNVLITSLIVSEAKYSRLFNCLKSAPDLMLVVDDKDNIRMLNKLGKSLNQPVHVLLDIDSGIGRTGINPEAALEYGHFINGMNWLKLKGIQCYAGHLQHIQNYEERKAFSLQVMEMASRIVKSFRDANLPCEILTGTGTGTFDIDVEASEVTEIQPGSYAVMDVEYGSIGSKNNPSSFQLFKNSMTLLTSVISSNRREHATVDAGTKSIYVDPHHKPHIISHPGLVYDWGGFGDEHGKVFSCEGGSHFLQNGDVLEIIVPHCDPTINLYDKFYITENNVVVDIWDIDMRGKSEGHHHHHH,soluble
12,MGSDKIHHHHHHMLESTEKGEVRKTVGNYRLILMNDPNLQGAFRLNMFTDKIDITRDLGWYRESDSLTDVDLKFLVVYLEKHYGLSNEKRIEDVIKVVANENRYHPVLDRINSITWDGRERIRYALHHFLGAEVSEYTYEVMKLFMIGTIARISCPGIKFEVMLCLVGGQGAGKSTFLRFLAMEDDWFTDDLKKMDDDNVYRKIQGHLIIEFPEMVAILNAKNVEDTKSFMSRQKDTYKTPYDRHPKDHKRQCVFAGSSNSLDFLPMDRSGNRRFLPILCNMEEAETHILDDEKTSREYIDQMWAEAMEIYRSGKCQLRLPKEMEKELCEYQKQFMQEDTKKELILDYLEHYEGSMVCSRQLYSEALGNDGNPAQWEIREINDIMNNCSDWIAFSNPRHFPEPYRRQKGWEKPDNRGQDFQPITKEQMEQLSLPPEWMER,not soluble
13,MSLIGLDLDSAPDLIQSVPAPRLRRQVWLRTASGQRLAYATSWWEASHVDEYLQNRSLPIWASLARLRTELYRDVRGIYYGNSEALQLGFGVDGPFWGRHYLFWHHGQPLTLIYEVFSPYLTKYLGPMQLSSRNGKILEHHHHHH,not soluble
14,SFTSQQWKHLSNDFLKTQQEKRHSWFKASGTIKKFRAGLSIFSPIPKSPSFPIIQDSMLKGKLGVPELRVGRLMNRSISCTMKNPKVEVFGYPPSPQVSGHCKNIPTLEYGFLVQIMKYAEQRIPTLNEYCVVCDEQHVFQNGSMLKPAVCTRELCVFSFYTLGVMSGAAEEVATGAEVVDLLVAMCRAALESPRKSIIFEPYPSVVDPTDPKTLAFNPKKKNYERLQKALDSVMSIREMTQGSYLEIKKQMDKLDPLAHPLLQWIISSNRSHIVKLPLSRLKFMHTSHQFLLLSSPPAKEARFRTAKKLYGSTFAFHGSHIENWHSILRNGLVNASYTKLQEWEKDSTGCPPRMSWSRDTTG,soluble
15,MNKYQAVIIGFGKAGKTLAVTLAKAGWRVALIEQSNAMYGGTCINIGCIPTKTLVHDAQQHTDFVRAIQRKNEVVNFLRNKNFHNLADMPNIDVIDGQAEFINNHSLRVHRPEGNLEIHGEKIFINTGAQTVVPPIPGITTTPGVYDSTGLLNLKELPGHLGILGGGYIGVEFASMFANFGSKVTILEAASLFLPREDRDIADNIATILRDQGVDIILNAHVERISHHENQVQVHSEHAQLAVDALLIASGRQPATASLHPENAGIAVNERGAIVVDKRLHTTADNIWAMGDVTGGLQFTYISLDDYRIVRDELLGEGKRSTDDRKNVPYSVFMTPPLSRVGMTEEQARESGADIQVVTLPVAAIPRARVMNDTRGVLKAIVDNKTQRMLGASLLCVDSHEMINIVKMVMDAGLPYSILRDQIFTHPSMSESLNDLFSLVK,soluble
16,AIATDSASLQFVSPYAFEAMQKVDVARLAALSDPELRLLLPCLVRMALCAPADQSNAWAQDKKLILRLLSGVEAVNSIVALLSVDFHALEQDARKEQQLRHKAGGSNGESILVSQLQHGLTLEFEHSDPLRRLRLALSELLAIMNKVQCPFIYSCIGMLIRVIFPTGAH,soluble
17,MVRTCSNCGSSEIDEDAARGDATCTACGTVLEESIVVTENQFQERAGGSGHTLVGQFVSSERAAANNFNGMGSQESREMTYAKGRKVIDELGSQLRINSHCMNTAFNFYKMCVSRNLTRGRNRSSVVAVCMYITCRLENTAHLLLDFSDVTQINVFDLGRNLNYLSRSLRINLPSTDPCLYIMRFACVLDFGDKQKEVVNLATRLVQRMKRDWMSTGRRPTGICGAALLIAARSLNFNRSINDIVRVVHISEGVIRKRLDEFSQTPSGSLTIDEFSTVDLEHSEDPPAYRESRRKAREDQLRKEAEQAESMKEQLGEMEAHVEAALDKKRKEKFSKSPYARMISENLGKENDKMQTLTETVVESSGLEKGADEMVRNEIINTVFNAAEEDPCTSNSLEKYDKYRPSLESLGIKRTSEPEPEPVPHPIVNADLEEDISDSEIDSYILTESEVAIKTDYWMKANGEAMKEIEEKKRERELNGGVKKKKPRSNRKTDTTSTSVASAVEKVIAEKKLSNKVNYEMLKDLETMATGIKRDIRESTPAPVTPISIKVDSSDVTPDTLSKSEKIARGKNIRSQASESTIQKLRSIFDLTEECSETSKNSSPKVNLKVESASPSTSEVSSIEHKPFVPPARSRYAKVKPIIGAKKLAALNEVKNVHTVPEPSAPAEPIVSEAPLQVKTSSSDPIVTSTEVPSVAEPPAPIQNVEEAKPIVPVKSRYAKAKPNLKPIKQKTAVDVVTVGEGESSEPSAKRTKAEHLES,not soluble
18,MKFLNQHELTKLLALLDLDHGLDWDYFLLLIAKTGLRFGEALGVTPMDFDMAKLTLTINKTWDYKSATGSFAETKNTASVRKVPLDWQVAMQFAAQIKSLPQDKPIFVTDGQRVYNETANDILERKCKRASIPVISIHGLRHTHASLLLYAGVSVGSVARRLGHANMSTTQKTYLHILEHHHHHH,soluble
19,HMRQRHILFANVQGHGHVYPSLGLVSELARRGHRITYVTTPLFADEVKAAGAEVVLYKSEFDTFHVPEVVKQEDAETQLHLVYVRENVAILRAAEEALGDNPPDLVVYDVFPFIAGRLLAARWDRPAVRLTGGFAANEHYSLFKELWKSNGQRHPADVEAVHSVLVDLLGKYGVDTPVKEYWDEIEGLTIVFLPKSFQPFAETFDERFAFVGPTLTGRDGQPGWQPPRPDAPVLLVSLGNQFNEHPEFFRACAQAFADTPWHVVMAIGGFLDPAVLGPLPPNVEAHQWIPFHSVLAHARACLTHGTTGAVLEAFAAGVPLVLVPHFATEAAPSAERVIELGLGSVLRPDQLEPASIREAVERLAADSAVRERVRRMQRDILSSGGPARAADEVEAYLGRVAP,soluble
